IntAct's records for PubMed 31515488

B1: Tuftelin-interacting protein 11 (Homo sapiens), Q9UBB9 (parent)
chain: MSLSHLYRDGEGRIDDDDDERENFEITDWDLQNEFNPNRQRHWQTKEEATYGVWAERDSDDERPSFGGKRARDYSAPVNFISAGLKKGAAEEAELEDSDDEEKPVKQDDFPKDFGPRKLKTGGNFKPSQKGFAGGTKSFMDFGSWERHTKGIGQKLLQKMGYVPGRGLGKNAQGIINPIEAKQRKGKGAVGAYGSERTTQSMQDFPVVDSEEEAEEEFQKELSQWRKDPSGSKKKPKYSYKTVEELKAKGRISKKLTAPQKELSQVKVIDMTGREQKVYYSYSQISHKHNVPDDGLPLQSQQLPQSGKEAKAPGFALPELEHNLQLLIDLTEQEIIQNDRQLQYERDMVVNLFHELEKMTEVLDHEERVISNLSKVLEMVEECERRMQPDCSNPLTLDECARIFETLQDKYYEEYRMSDRVDLAVAIVYPLMKEYFKEWDPLKDCTYGTEIISKWKSLLENDQLLSHGGQDLSADAFHRLIWEVWMPFVRNIVTQWQPRNCDPMVDFLDSWVHIIPVWILDNILDQLIFPKLQKEVENWNPLTDTVPIHSWIHPWLPLMQARLEPLYSPIRSKLSSALQKWHPSDSSAKLILQPWKDVFTPGSWEAFMVKNIVPKLGMCLGELVINPHQQHMDAFYWVIDWEGMISVSSLVGLLEKHFFPKWLQVLCSWLSNSPNYEEITKWYLGWKSMFSDQVLAHPSVKDKFNEALDIMNRAVSSNVGAYMQPGARENIAYLTHTERRKDFQYEAMQERREAENMAQRGIGVAASSVPMNFKDLIETKAEEHNIVFMPVIGKRHEGKQLYTFGRIVIYIDRGVVFVQGEKTWVPTSLQSLIDMAK
partner: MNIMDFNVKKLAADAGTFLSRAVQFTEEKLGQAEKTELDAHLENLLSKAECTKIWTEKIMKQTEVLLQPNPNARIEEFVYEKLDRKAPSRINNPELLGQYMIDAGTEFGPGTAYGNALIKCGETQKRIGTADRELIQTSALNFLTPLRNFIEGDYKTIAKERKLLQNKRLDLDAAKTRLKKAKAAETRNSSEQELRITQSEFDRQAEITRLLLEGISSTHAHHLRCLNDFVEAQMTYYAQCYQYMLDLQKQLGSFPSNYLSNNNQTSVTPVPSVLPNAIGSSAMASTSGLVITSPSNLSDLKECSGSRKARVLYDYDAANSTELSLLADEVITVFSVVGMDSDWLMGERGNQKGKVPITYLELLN
B2: "Guanine nucleotide-binding protein G(T) subunit gamma-T1" (Homo sapiens), P63211 (parent)
chain: MPVINIEDLTEKDKLKMEVDQLKKEVTLERMLVSKCCEEVRDYVEERSGEDPLVKGIPEDKNPFKELKGGCVIS
partner: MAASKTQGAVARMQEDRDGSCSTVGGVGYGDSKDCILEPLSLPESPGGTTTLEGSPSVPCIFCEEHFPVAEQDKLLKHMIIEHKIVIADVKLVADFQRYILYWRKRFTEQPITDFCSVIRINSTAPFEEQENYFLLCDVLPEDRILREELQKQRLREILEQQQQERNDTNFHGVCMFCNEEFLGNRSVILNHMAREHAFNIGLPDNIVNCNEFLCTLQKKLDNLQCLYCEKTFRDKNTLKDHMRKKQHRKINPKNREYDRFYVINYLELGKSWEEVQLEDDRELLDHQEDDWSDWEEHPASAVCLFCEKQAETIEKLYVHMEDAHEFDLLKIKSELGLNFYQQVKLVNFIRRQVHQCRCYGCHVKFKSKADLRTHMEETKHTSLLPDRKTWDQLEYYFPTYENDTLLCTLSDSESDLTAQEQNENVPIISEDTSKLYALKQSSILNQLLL
B3: Four and a half LIM domains protein 2 (Homo sapiens), Q14192 (parent)
chain: MTERFDCHHCNESLFGKKYILREESPYCVVCFETLFANTCEECGKPIGCDCKDLSYKDRHWHEACFHCSQCRNSLVDKPFAAKEDQLLCTDCYSNEYSSKCQECKKTIMPGTRKMEYKGSSWHETCFICHRCQQPIGTKSFIPKDNQNFCVPCYEKQHAMQCVQCKKPITTGGVTYREQPWHKECFVCTACRKQLSGQRFTARDDFAYCLNCFCDLYAKKCAGCTNPISGLGGTKYISFEERQWHNDCFNCKKCSLSLVGRGFLTERDDILCPDCGKDI
partner: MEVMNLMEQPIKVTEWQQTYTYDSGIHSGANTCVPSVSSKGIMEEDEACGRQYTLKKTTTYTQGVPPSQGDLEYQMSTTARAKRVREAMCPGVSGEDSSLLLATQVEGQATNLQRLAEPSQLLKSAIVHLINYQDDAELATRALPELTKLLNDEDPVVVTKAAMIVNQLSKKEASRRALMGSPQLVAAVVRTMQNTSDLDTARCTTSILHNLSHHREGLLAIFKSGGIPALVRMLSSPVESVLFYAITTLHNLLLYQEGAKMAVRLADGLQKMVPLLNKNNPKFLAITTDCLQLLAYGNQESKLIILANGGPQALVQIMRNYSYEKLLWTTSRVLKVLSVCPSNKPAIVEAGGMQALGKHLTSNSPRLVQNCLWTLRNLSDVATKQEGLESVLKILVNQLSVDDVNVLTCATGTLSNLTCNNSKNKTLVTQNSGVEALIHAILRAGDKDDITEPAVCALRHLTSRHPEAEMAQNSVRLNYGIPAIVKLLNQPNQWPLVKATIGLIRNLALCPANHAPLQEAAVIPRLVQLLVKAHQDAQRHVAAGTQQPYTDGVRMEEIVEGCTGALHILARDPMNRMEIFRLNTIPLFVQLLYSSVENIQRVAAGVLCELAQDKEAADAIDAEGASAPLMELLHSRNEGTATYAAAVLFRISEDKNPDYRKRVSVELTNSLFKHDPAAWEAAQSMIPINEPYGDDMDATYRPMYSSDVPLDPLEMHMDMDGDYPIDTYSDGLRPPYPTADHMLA
B4: DCC-interacting protein 13-alpha (Homo sapiens), Q9UKG1 (parent)
chain: MPGIDKLPIEETLEDSPQTRSLLGVFEEDATAISNYMNQLYQAMHRIYDAQNELSAATHLTSKLLKEYEKQRFPLGGDDEVMSSTLQQFSKVIDELSSCHAVLSTQLADAMMFPITQFKERDLKEILTLKEVFQIASNDHDAAINRYSRLSKKRENDKVKYEVTEDVYTSRKKQHQTMMHYFCALNTLQYKKKIALLEPLLGYMQAQISFFKMGSENLNEQLEEFLANIGTSVQNVRREMDSDIETMQQTIEDLEVASDPLYVPDPDPTKFPVNRNLTRKAGYLNARNKTGLVSSTWDRQFYFTQGGNLMSQARGDVAGGLAMDIDNCSVMAVDCEDRRYCFQITSFDGKKSSILQAESKKDHEEWICTINNISKQIYLSENPEETAARVNQSALEAVTPSPSFQQRHESLRPAAGQSRPPTARTSSSGSLGSESTNLAALSLDSLVAPDTPIQFDIISPVCEDQPGQAKAFGQGGRRTNPFGESGGSTKSETEDSILHQLFIVRFLGSMEVKSDDHPDVVYETMRQILAARAIHNIFRMTESHLLVTCDCLKLIDPQTQVTRLTFPLPCVVLYATHQENKRLFGFVLRTSSGRSESNLSSVCYIFESNNEGEKICDSVGLAKQIALHAELDRRASEKQKEIERVKEKQQKELNKQKQIEKDLEEQSRLIAASSRPNQASSEGQFVVLSSSQSEESDLGEGGKKRESEA
partner: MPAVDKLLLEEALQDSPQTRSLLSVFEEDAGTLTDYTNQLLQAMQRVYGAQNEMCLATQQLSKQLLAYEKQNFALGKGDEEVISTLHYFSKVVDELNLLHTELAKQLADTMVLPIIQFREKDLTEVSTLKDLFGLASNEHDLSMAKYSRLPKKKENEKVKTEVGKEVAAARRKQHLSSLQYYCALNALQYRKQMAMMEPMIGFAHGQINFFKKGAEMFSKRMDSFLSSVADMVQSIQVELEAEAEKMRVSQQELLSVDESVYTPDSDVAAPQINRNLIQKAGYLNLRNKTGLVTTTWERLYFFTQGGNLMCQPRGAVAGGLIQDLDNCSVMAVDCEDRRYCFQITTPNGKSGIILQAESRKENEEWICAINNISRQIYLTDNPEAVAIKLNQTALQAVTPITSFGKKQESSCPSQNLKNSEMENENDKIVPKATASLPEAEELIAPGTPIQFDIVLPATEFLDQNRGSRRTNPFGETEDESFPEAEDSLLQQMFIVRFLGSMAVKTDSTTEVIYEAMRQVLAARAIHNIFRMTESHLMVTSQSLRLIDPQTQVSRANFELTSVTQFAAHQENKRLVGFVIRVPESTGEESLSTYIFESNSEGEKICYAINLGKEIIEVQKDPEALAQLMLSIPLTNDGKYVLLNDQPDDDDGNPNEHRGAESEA

Variants of: B1
Settings: with shlb1_human SH3GLB1, Q9Y371

| effect of a mutation on the interaction | Variant |
| --- | --- |
| with no effect | S688L |
| with no effect | R8Q |

Variants of: B2
Settings: with zn277_human ZNF277, Q9NRM2

| effect of a mutation on the interaction | Variant |
| --- | --- |
| with no effect | E50K |

Variants of: B3
Settings: with plak_human JUP

| effect of a mutation on the interaction | Variant |
| --- | --- |
| with no effect | A37S |
| disrupting interaction strength | N95K |

Variants of: B4
Settings: with dp13b_human APPL2, Q8NEU8

| effect of a mutation on the interaction | Variant |
| --- | --- |
| with no effect | E67G |
